Experimental data as given in doi:10.1101/2021.04.13.439655.

Key:
[1] = target: extended construct of the non-phosphorylated Smad2 MH2 domain (S2LMH2); assay: SAXS with ensemble optimization method
[2] = target: full-length phosphomimetic Smad2 (S2FLEEE) (UniProt Q15796); assay: SAXS with ensemble optimization method

Chain of extended construct of the non-phosphorylated Smad2 MH2 domain (S2LMH2) (domain or fragment) (Q15796 269-467): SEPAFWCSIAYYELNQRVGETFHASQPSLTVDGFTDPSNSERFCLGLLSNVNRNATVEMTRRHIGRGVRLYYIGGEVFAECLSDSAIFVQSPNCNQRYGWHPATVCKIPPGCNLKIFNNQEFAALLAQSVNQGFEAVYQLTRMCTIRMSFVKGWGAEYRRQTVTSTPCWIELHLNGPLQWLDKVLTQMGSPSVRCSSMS
Chain of full-length phosphomimetic Smad2 (S2FLEEE) (from UniProt Q15796 1-467) (natural protein) (Q15796 whole entry): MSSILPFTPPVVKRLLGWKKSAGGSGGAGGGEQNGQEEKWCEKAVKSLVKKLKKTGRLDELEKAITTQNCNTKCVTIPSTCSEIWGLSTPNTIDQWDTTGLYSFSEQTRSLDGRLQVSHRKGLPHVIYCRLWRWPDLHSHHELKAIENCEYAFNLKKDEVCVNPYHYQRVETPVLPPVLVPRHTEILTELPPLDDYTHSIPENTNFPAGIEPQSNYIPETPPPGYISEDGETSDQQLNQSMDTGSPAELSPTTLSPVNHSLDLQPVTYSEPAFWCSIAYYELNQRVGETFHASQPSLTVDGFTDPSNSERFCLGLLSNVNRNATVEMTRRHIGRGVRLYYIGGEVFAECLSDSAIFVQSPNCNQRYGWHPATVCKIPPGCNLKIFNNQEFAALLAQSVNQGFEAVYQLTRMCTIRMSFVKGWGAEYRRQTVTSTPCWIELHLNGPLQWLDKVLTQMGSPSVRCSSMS

Substance: extended construct of the non-phosphorylated Smad2 MH2 domain (S2LMH2) (domain or fragment)
- percent of the total population as trimer at 15 and 30 μM [1]: 50%
- stoichiometry N [1]: 3

Substance: full-length phosphomimetic Smad2 (S2FLEEE) (from UniProt Q15796 1-467) (natural protein)
- percent of the population as dimer at all concentrations analyzed [2]: 36%
- percent of the population as trimer at 28.1 μM [2]: 44.8%
